Assay: soluble on expression in E. coli; label from the status in PepcDB or PDB records

**Q.** Which “soluble on expression in E. coli” value does the source give for “MESMLLPKYFDILIVDDIPEHIDVAVQVLRDSNFKIRVATDGNTALKLIYQQKPDLILLDIYMPEMDGFELCRLIKNTPDLKNIPVIFLTSFSDEESIRKGFESGGQDYVVKPFNASELLSRVKTHLMLKCQAESLKEANKELDSFCYTVAHDLKSPLLSLNKLVELLVSDHLNQLDSAGKELVYNIREKSSEIIHTVDRLLEFSKMCEMQVNFEIIDLNELFTEVCNELKSLEPQRDIRIHIQPLPKVYGDRLLMRLLISNILSNAFKYTRNRQTAIIEIQSSEDGNEYVFFVKDNGAGFDMKYSSRLFGVFQRLHSKDEFEGSGVGLAICQRILKRHNGRAWMTGEIDKGATFFFTLPKFE” here?
**A.** The value was “soluble”.

**Q.** Which “soluble on expression in E. coli” value does the source give for “MSLARPDELMFAPLGGVGEIGMNLSIYGLGNRHQRSWLAVDLGVSFGDEEHLPGIDLIMPDVRFLEKERKNLVGLVLTHAHEDHFGAIIELWPRLKCPIYATKFSAALFEAKCAAERNPPDIPVTVVPSGDRIDLGPFGVEFVPVAHSIPESHALAIHTAAGIVVHTGDWKIDPTPIVGPPTDERRLRELGDEGVLALIGDSTNAVRDGRSPSETEVAKTIAELVKAARGRVAVTTFASNVGRLRAVADAARAAGREVVVVGRAMERVVQVARETGHLDGMQELRSADVYGHLPSDKVLALCTGSQGEPRAALARIAKDDHPQVTLNRGDTVIFSSRTIPGNERAVGAIINGLVTQGIKVITDRTELVHVSGHPRRDELRDMIAWVRPQLLIPVHGEALHLSEHAQLARAAGVPKVLICKNGDLVRLGPEGHHHHHH” here?
**A.** The value was “soluble”.

**Q.** For “MINFHPNVKRAISQAAQKYGLPESFLERVAMIESKGNPNARNSKSSAGGLYQFLDSTAKQYQLNNKFDPFQATDAMARLTKDNTRYLATALGREPSQAELYLAHQQGPAGAVKLIKNPNVPASQLLGRQAVVLNGGNVEATAGDFMNHIYGLYNKTGEASNGRARQSWGNGQSAANEVVPLRGVERFQKAIQGAQARKPLMAYDTPLHENTRFQGQGIDAGALKKSVMSLVDLMRRNKDAQNQQIEMAHQQMMQQPMMTGFSQSSAHPVDLTLLIDPSRRNPVRSYGQQKKQQLQEELLRRTGAYHV”, which “soluble on expression in E. coli” value is on record?
**A.** Its value is “not soluble”.

**Q.** For “MSLKAINFINWKYIGLTGCLVASLLTACGDDETGPEVVTPLEPKLEIVNEASTFSFSSAGNSAQVLTFNANQDWHIVLDDSEGVDNSWVVLFEREGTAGEGNKVWVAAAENVEPDARRANFSLVSGGFKYDFVIYQAQKDAVVITDPKAYENLDAGEHIISVEFGINTGEYKTSFLYSGDTGWIMPTDERPAGEPETRAMENHTLYFKVLPNQKFDIRRGTIEISSKDNDNVKATMNIFQTGLPKPVITVDNKEMFTNLASKEDSILLKYKATNTNGPRDLTIDIDKNDQDWISFKPAIDAKGDSTFLVSVKENTGGERTATIALCAAADKKVREEFIVTQAQASDVELVITNKNDFRTSLDKLGSAATVKYSVQSTLTDPKNEILVDIVYPEESGYTAENGWLHMANNSMPERVIFTYDVNKVLRERQATVYIYRKGYENKKDYMVIRQAAATQIEIPAPGGLTNVLQSLIDDEIYKDWESITSLELKGRLNDTDLNLLKNMMTAGKGYNLKTLDMTEVENETLKNGVFNGCNLLENISFPTGLQYVPREACRNCTKLRTVVVNEGPTYIGRHAFGNSVVNEAWFPSTMTYVYGYIFDNVTALKTLHLKSLPFQCKEVARSDADEGATQPTTWCTVFKTWPSTVYVPMEYLEYYKNPDPKHVVSMHFQDLLNTLTSESEEWTKGPKVQQPYLKSNSALKSNFTWGSSATTIMGESEGHHHHHH”, which “soluble on expression in E. coli” value is on record?
**A.** The value was “soluble”.

**Q.** For “PSEHLEHLFQYIVNDDKTYMKKLVSGHGIVDPTNPYEEFKLTKLQAAIQRKIGYTFDPKSERLLPPTLTELEKGNAVLAHHLIQSFSPEDDLTPEKIHEIGYNTVMELTGGEYEFVIATHVDKEHLHNHIIFSSTNLKTGKAFRWQKGTKKVFEQISDKIAAKEGAKIIEKSPKQTHTKYTKWQTESIYKQKIKSRLDFLLEQSSSINDFLEKAEALNLSADFSNKWTTYRLLDEPQIKNTRSRSLSKSDPTRYNYEKIIERLKENKNVL”, which “soluble on expression in E. coli” value is on record?
**A.** The value was “not soluble”.

**Q.** For “MASANNQNKFLDPRERGNILNYLKVCLLLARAVRRMHAAGLCHSDLSYKNVLIDPEQGHACIIDVDGLVVPGKFPPDVVGTPDFIAPEVVKTSHLLKEDPQRILPNITTDRHALSVLIYMYLFYRHPLRGGKIHDMDDEVRDESLAMGERALFIEHPTDRSNAVKLNQVKPSSLPWADPQKVPYTIMGPYLTQLFEKAFIDGLHDPSKRPTADEWETALVKTVDLIQPCQNTACEQKWYVFSGKTKPVCPYCLEHHHHHH”, which “soluble on expression in E. coli” value is on record?
**A.** Its value is “soluble”.

Source: the DeepSol protein solubility set
